# Experimental data taken from patent US20060193771A1.
# What was measured:
# CD30-Fc (human) = molecular target: T1, CD30-Fc (human); experiment: indirect ELISA, CD30-Fc coated
# T1 sequence: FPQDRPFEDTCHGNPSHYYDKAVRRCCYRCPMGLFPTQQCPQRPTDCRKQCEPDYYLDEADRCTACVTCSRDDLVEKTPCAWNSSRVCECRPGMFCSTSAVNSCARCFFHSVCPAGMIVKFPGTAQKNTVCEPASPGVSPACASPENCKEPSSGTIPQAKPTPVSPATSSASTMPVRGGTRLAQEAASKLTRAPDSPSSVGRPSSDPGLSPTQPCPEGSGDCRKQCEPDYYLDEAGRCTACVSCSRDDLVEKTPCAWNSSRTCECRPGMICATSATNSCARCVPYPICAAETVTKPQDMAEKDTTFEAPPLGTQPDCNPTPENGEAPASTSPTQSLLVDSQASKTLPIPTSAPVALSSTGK
# [1] = molecular target: human CD30, native, expressed on cells (human); experiment: FACS, L540 cells, MAb 5 µg/ml, control HeFi-I
# [2] = molecular target: human CD30, native, expressed on cells (human); experiment: competitive FACS on L540 cells, unlabeled MAb 2.5 µg/ml; competitor: biotin-HRS-4
# [3] = molecular target: human CD30, native, expressed on cells (human); experiment: competitive FACS on L540 cells, unlabeled MAb 2.5 µg/ml; competitor: biotin-T24
# [4] = molecular target: human CD30, native, expressed on cells (human); experiment: FACS, L428 cells, MAb 5 µg/ml, control HeFi-I
# [5] = molecular target: human CD30, native, expressed on cells (human); experiment: competitive FACS on L540 cells, unlabeled MAb 2.5 µg/ml; competitor: biotin-T6
# [6] = molecular target: human CD30, native, expressed on cells (human); experiment: competitive FACS on L540 cells, unlabeled MAb 2.5 µg/ml; competitor: biotin-HeFi-I
# [7] = molecular target: human CD30, native, expressed on cells (human); experiment: competitive FACS on L540 cells, unlabeled MAb 2.5 µg/ml; competitor: biotin-T14
# [8] = molecular target: human CD30, native, expressed on cells (human); experiment: competitive FACS on L540 cells, unlabeled MAb 2.5 µg/ml; competitor: biotin-T25
# [9] = molecular target: T2, recombinant soluble CD30 (sCD30) produced in E. coli (human); experiment: indirect ELISA, sCD30 coated
# T2 sequence: T1 sequence
# [10] = molecular target: transferrin receptor on L540 cells (UniProt P02786); experiment: cell-based or functional assay
# [11] = molecular target: human CD30, native, expressed on cells (human); experiment: FACS, L428 cells, control HeFi-I
# [12] = molecular target: human CD30, native, expressed on cells (human); experiment: FACS, L540 cells, control HeFi-I
# Chain of transferrin receptor on L540 cells (P02786 whole entry): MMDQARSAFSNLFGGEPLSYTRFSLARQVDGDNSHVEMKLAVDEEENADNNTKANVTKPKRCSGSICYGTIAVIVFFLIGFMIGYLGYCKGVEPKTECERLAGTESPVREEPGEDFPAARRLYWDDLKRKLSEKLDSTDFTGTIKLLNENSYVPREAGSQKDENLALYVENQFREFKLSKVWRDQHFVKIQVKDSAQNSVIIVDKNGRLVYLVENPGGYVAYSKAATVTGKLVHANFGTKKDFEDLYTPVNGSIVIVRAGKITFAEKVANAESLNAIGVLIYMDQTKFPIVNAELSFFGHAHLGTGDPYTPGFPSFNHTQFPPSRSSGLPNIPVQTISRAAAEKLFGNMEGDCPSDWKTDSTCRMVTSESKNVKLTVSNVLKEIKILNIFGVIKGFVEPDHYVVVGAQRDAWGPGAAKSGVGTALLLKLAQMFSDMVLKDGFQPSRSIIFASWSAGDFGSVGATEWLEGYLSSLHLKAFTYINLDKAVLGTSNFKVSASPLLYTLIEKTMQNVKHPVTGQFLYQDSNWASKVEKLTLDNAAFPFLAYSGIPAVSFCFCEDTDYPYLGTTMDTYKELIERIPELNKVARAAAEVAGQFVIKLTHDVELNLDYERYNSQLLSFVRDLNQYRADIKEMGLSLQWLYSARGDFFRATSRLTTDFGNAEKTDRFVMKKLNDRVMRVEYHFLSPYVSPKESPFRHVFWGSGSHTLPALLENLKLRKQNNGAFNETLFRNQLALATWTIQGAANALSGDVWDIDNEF
# Chain of HB21(scFv)-PE40 (P11439 278-638): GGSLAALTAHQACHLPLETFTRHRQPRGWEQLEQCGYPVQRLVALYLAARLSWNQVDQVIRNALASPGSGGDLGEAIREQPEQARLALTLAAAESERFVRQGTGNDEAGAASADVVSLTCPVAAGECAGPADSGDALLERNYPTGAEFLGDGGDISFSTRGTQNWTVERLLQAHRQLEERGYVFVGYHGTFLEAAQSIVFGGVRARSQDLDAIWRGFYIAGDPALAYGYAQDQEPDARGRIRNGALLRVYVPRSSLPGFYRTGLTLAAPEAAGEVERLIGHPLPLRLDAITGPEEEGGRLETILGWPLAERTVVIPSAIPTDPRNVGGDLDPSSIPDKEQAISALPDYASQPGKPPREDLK
titer in ELISA (CD30-Fc (human)) [mL/µg],relative reactivity in FACS (% of control) [1],inhibition of the binding of biotin-MAb (%) [2] [%],inhibition of the binding of biotin-MAb (%) [3] [%],relative reactivity in FACS (% of control) [4],inhibition of the binding of biotin-MAb (%) [5] [%],inhibition of the binding of biotin-MAb (%) [6] [%],inhibition of the binding of biotin-MAb (%) [7] [%],inhibition of the binding of biotin-MAb (%) [8] [%],titer in ELISA [9] [mL/µg],Substance,"IC50 (ng/ml) in cytotoxicity test, A431/CD25 cells [10] [ng/mL]","IC50 (ng/ml) in cytotoxicity test, A431/CD30 cells [10] [ng/mL]","IC50 (ng/ml) in cytotoxicity test, HUT102W cells [10] [ng/mL]","IC50 (ng/ml) in cytotoxicity test, SUDHL-1 cells [10] [ng/mL]","IC50 (ng/ml) in cytotoxicity test, SUP-M2 cells [10] [ng/mL]",relative reactivity in FACS (% of control) [11],relative reactivity in FACS (% of control) [12]
75,111 % of control,80.3,18.2,160 % of control,75.6,0,108,23.3,50,Ber-H2 MAb (antibody),–,–,–,–,–,–,–
–,–,–,–,–,–,–,–,–,–,HB21(scFv)-PE40 (from UniProt P11439 278-638),0.03,0.02,1.5,0.05,0.02,–,–
50,–,82.6,3.9,–,87.4,0,108,25,–,HRS-4 MAb (antibody),–,–,–,–,–,–,–
–,–,–,–,–,–,–,–,–,–,control mouse IgG1 (antibody),–,–,–,–,–,16 % of control,0.2 % of control
